Patent US12611443B2, “Methods and compositions related to therapeutic peptides for cancer therapy” (THE UNIVERSITY OF CHICAGO, priority 2018, dated 2026)
“Also recorded” adds a separate entry of the source.

Experiments:
[1] = test system: human/murine cancer cells; test: In vitro cell viability of cancer cells (calcein-AM, CASP3, ANXA5); type: cell-based; conditions: for effect of ELANE inhibitor treatment of ELANE or PMN media on cancer cell killing: PMSF 1 mM or A1AT 42 nM
Source text: Cell lines. The ovarian cancer cell lines—CAOV3, OVCAR3, OVCAR4, OVCAR5, A2780, A2780/CP70, HeyA8, TykNu, SKOV3, ID8, and ID8p53-/- were a gift from Dr. Ernst Lengyel, University of Chicago. The breast cancer cell lines—MDA-MB-231, MDA-MB-231.BM1, MCF-7, M6C, E0771, and E0771.LMB were a gift from Dr. Marsha Rosner, University of Chicago. The colon carcinoma cell line RKO, glioblastoma cancer cell line T98G, osteosarcoma cell lines U-2OS and Saos-2, and the hepatocellular carcinoma cell line HepG2 were a gift from Dr. Kay McLeod, University of Chicago. The lung cancer cell line NCI-H552 was a gift from Dr. Stephanie Huang, University of Chicago, and A549 and LLC1 cells were purchased from ATTC. The melanoma cell lines—B16F10, Mel888, Mel1106, and SK-MEL-28 cells were a gift from Dr. Thomas Gajewski, University of Chicago. The pancreatic cancer cell line PANC1 was a gift from Dr. Yamuna Krishnan, University of Chicago. The leukemia cell line K562 was a gift from Dr. Amittha Wickrema, University of Chicago.
The prostate cancer cell lines—CWR22Rv1, LAPC4, and LNCaP were a gift from Dr. Donald Vander Griend, University of Chicago. The neuroblastoma cell lines—SK-N-BE(2) and NBL-WN cells were a gift from Dr. Lucy Godley, University of Chicago.
Neutrophil media collections. Freshly isolated human or murine neutrophils were plated in serum-free DMEM for 24 h. Conditioned media was collected, spun at 500×g for 5 min, and media protein levels were determined with a Bradford assay (Biorad).
PMN media manipulations. For boiling, PMN media was boiled at 95° C. for 5 min and spun at 15,000×g for 10 min to remove precipitated proteins. For dialysis, PMN media was placed into a Slide-a-Lyzer™ cassette (3.5 kDa cutoff, ThermoFisher Scientific) and dialyzed against 2×4L of PBS at 4° C. for 4 h. For PMSF-inactivation, PMN media was treated with PMSF (1 mM, Sigma) or A1AT (42 nM, Athens Research & Technology) and incubated at room temperature for up to 2 h. Residual PMSF was eliminated with a PD-10 desalting column (GE Healthcare Life). Inhibition of ELANE catalytic activity was confirmed using a chromogenic substrate activity assay (see below). For serum-spiking experiments, human, mouse, or fetal bovine serum (1% or 10%) was added to PMN media prior to or after exposing cancer cells. For immune-depletion studies, ELANE or ECP were immunoprecipitated using anti-ELANE (N2C3, GeneTx) or anti-ECP (MB S2535165, MyBioSource) coupled to Pierce™ Protein A/G Magnetic Beads (ThermoFisher Scientific).
(§1) In vitro cell viability assays. […] Luminescence was measured using a Victor X3 luminometer (PerkinElmer).

[2] = test system: human and murine cancer cells; test: CD95 overexpression, ELANE-mediated apoptosis (ANXA5); type: cell-based; conditions: ELANE 40 nM, ANXA5 at 30 min
Method: FIGS. 2A-2D Overexpressing CD95 proteins accelerates cancer cell killing by ELANE. Polycistronic adenoviral vectors were prepared to express the human and mouse CD95 sequences followed by the Encephalomyocarditis virus (EMCV) internal ribosome entry site and dTomato sequence under the control of the cytomegalovirus (CMV) promoter. Human and murine cancer cells or non-cancer cells were transduced to over-express full-length CD95, N-terminal CD95 (human: aa 1-209; mouse: aa 1-204), or C-terminal CD95 (human: aa 212-335; mouse: aa 204-327). (A): Transduction efficiency quantified by dTomato (Left). CD95 levels in dTomato− and dTomato+ cells quantified by geometric mean (MFI) (Middle). ANXA5 levels in dTomato− and dTomato+ cells 30 min after treatment with ELANE (40 nM) (Right). Representative data for A549 cells are shown. (B-C): Quantification of transduction efficiency (B) and relative CD95 overexpression (C) for cancer cells and non-cancer cells. (D): Quantification of ANXA5 levels following ELANE treatment (40 nM, 30 min) for mouse cancer cell lines (E0771, B16F10). *, p<0.05 Student's t-test.
as §1
(§2) CD95 overexpression studies. Polycistronic adenoviral vectors were prepared to express the human and mouse CD95 sequences followed by the Encephalomyocarditis virus (EMCV) internal ribosome entry site and dTomato sequence under the control of the cytomegalovirus (CMV) promoter (VectorBuilder). Human and murine cancer cells or normal or non-cancer cells were transduced to over-express full-length CD95, N-terminal CD95 (human: aa 1-209; mouse: aa 1-204), C-terminal CD95 (human: aa 212-335; mouse: aa 204-327), or C-terminal CD95 that mimicked ELANE cleavage at site 1 (human: aa 221-335), site 2 (human: aa 212-331), or both sites (aa 221-331). Cancer cells or normal or non-cancer cells were transduced with adenoviruses at an MOI of 50-250 depending on cell type, and expression of dTomato and CD95 (human: 558814; mouse, mouse: 565130, BD Biosciences) were confirmed by flow cytometry. A vector encoding GFP (Vector Builders) was used as a control.

cancer cells = test: CD95 protein overexpression in cancer cells, viability in absence of ELANE (calcein-AM); type: cell-based, human; conditions: transient overexpression
Method: FIGS. 1A-1K. ELANE cleaves CD95 to selectively kill cancer cells. (A): Heatmap summary of ELANE's effects on survival, stress, and apoptosis pathways in cancer cells and healthy cells. (B-C): Cancer cells were treated with ELANE (100 nM) and CD95 cleavage was assessed by western blotting using anti-N-terminal (B) or anti-C-terminal antibodies (C). *, lower molecular weight CD95 fragment. (D): Cancer cells or non-cancer cells were transduced to overexpress CD95 proteins, and effects on ELANE-mediated apoptosis were quantified by ANXAS at 30 min. n=2/group. See FIG. 1I for transduction and CD95 over-expression. (E): Cleavage of recombinant human CD95 N-terminal (aa 1-173) or C-terminal (aa 212-335) proteins by ELANE was assessed by SDS-PAGE and Coomassie blue staining. (F): Bands from (E) were digested with trypsin and analyzed by mass spectrometry to identify putative ELANE cleavage sites (i.e., peptides with non-tryptic ends). Major non-tryptic peptides were quantified by ion chromatograms. (G): Schematic of ELANE cleavage sites in CD95. […] (H): Cleavage of recombinant peptides corresponding to aa 214-231 and aa 317-335 in CD95 by ELANE was monitored by mass spectrometry. (I): Cancer cells or non-cancer cells were treated with fluorescein-labeled ELANE for 10 min and uptake was visualized by immunofluorescence. (J): ELANE catalytic activity in cancer cell lysates following exposure to ELANE for 30 mins in the presence and absence of Dynasore (60 μM endocytosis inhibitor). Effect of Dynasore on cancer cell killing capability of ELANE (measured by calcein-AM). n=6/group. (K): Cancer cells or non-cancer cells were transduced to overexpress various CD95 proteins, and cell viability in the absence of ELANE was determined by calcein-AM. n=10/group. *, p<0.05 Student's t-test.
as §1, §2

Molecule	effect of overexpression on ELANE-mediated killing [2]	cancer cell death/toxicity on expression in the absence of ELANE (cancer cells)	further results
O=S(=O)(F)Cc1ccccc1 [PMSF]			effect of ELANE inhibitor treatment of ELANE or PMN media on cancer cell killing [1]: eliminated the ability of PMN media to kill cancer cells in vitro and in vivo; also recorded: protects cancer cells from apoptosis
A1AT: alpha-1-anti-trypsin, irreversible non-competitive ELANE inhibitor			effect of ELANE inhibitor treatment of ELANE or PMN media on cancer cell killing [1]: eliminated the ability of PMN media to kill cancer cells in vitro and in vivo; effect of ELANE inhibitor treatment of ELANE or PMN media on cancer cell killing ([1]; listed as alpha-1-antitrypsin): protects cancer cells from apoptosis
murine ELANE: recombinant mouse ELANE activated with CTSC (protein, UniProt Q3UP87 27-265, looked up) Neutrophil elastase: SEIVGGRPARPHAWPFMASLQRRGGHFCGATLIARNFVMSAAHCVNGLNFRSVQVVLGAHDLRRQERTRQTFSVQRIFENGFDPSQLLNDIVIIQLNGSATINANVQVAQLPAQGQGVGDRTPCLAMGWGRLGTNRPSPSVLQELNVTVVTNMCRRRVNVCTLVPRRQAGICFGDSGGPLVCNNLVQGIDSFIRGGCGSGLYPDAFAPVAEFADWINSIIRSHNDHLLTHPKDREGRTN			cancer cell killing by murine ELANE [1]: kills cancer cells
full-length CD95: full length human CD95 (aa 1-335), isoform 1 (protein, listed as Homo sapiens) MLGIWTLLPLVLTSVARLSSKSVNAQVTDINSKGLELRKTVTTVETQNLEGLHHDGQFCHKPCPPGERKARDCTVNGDEPDCVPCQEGKEYTDKAHFSSKCRRCRLCDEGHGLEVEINCTRTQNTKCRCKPNFFCNSTVCEHCDPCTKCEHGIIKECTLTSNTKCKEEGSRSNLGWLCLLLLPIPLIVWVKRKEVQKTCRKHRKENQGSHESPTLNPETVAINLSDVDLSKYITTIAGVMTLSQVKGFVRKNGVNEAKIDEIKNDNVQDTAEQKVQLLRNWHQLHGKKEAYDTLIKDLKKANLCTLAEKIQTIILKDITSDSENSNFRNEIQSLV	accelerated ELANE-mediated killing in human cancer cells	not toxic to cancer cells	effect of overexpression on ELANE-mediated killing ([2]; listed as human CD95 (hCD95)): did not protect against ELANE-mediated killing, but rather accelerated it
C2: hCD95 C-terminal peptide aa 212-331, mimics ELANE cleavage at site 2 (protein) SPTLNPETVAINLSDVDLSKYITTIAGVMTLSQVKGFVRKNGVNEAKIDEIKNDNVQDTAEQKVQLLRNWHQLHGKKEAYDTLIKDLKKANLCTLAEKIQTIILKDITSDSENSNFRNEI		toxic	cancer cell death/toxicity on expression in the absence of ELANE (cancer cells; listed as aa. 212-331 of SEQ ID NO:1): induced cancer cell death in the absence of ELANE
N-terminal domain peptide of CD95: N-terminal domain of human CD95, aa 1-209 (protein, listed as Homo sapiens) MLGIWTLLPLVLTSVARLSSKSVNAQVTDINSKGLELRKTVTTVETQNLEGLHHDGQFCHKPCPPGERKARDCTVNGDEPDCVPCQEGKEYTDKAHFSSKCRRCRLCDEGHGLEVEINCTRTQNTKCRCKPNFFCNSTVCEHCDPCTKCEHGIIKECTLTSNTKCKEEGSRSNLGWLCLLLLPIPLIVWVKRKEVQKTCRKHRKENQGS	had no effect	not toxic to cancer cells	
Cl: hCD95 C-terminal peptide aa 221-335, mimics ELANE cleavage at site 1 (protein) AINLSDVDLSKYITTIAGVMTLSQVKGFVRKNGVNEAKIDEIKNDNVQDTAEQKVQLLRNWHQLHGKKEAYDTLIKDLKKANLCTLAEKIQTIILKDITSDSENSNFRNEIQSLV		toxic	cancer cell death/toxicity on expression in the absence of ELANE (cancer cells; listed as aa. 221-335 of SEQ ID NO:1): induced cancer cell death in the absence of ELANE
mouse CD95 (mCD95): mouse CD95 overexpressed in cancer cells (protein, UniProt P25446 22-327, looked up) Tumor necrosis factor …: QGTNSISESLKLRRRVRETDKNCSEGLYQGGPFCCQPCQPGKKKVEDCKMNGGTPTCAPCTEGKEYMDKNHYADKCRRCTLCDEEHGLEVETNCTLTQNTKCKCKPDFYCDSPGCEHCVRCASCEHGTLEPCTATSNTNCRKQSPRNRLWLLTILVLLIPLVFIYRKYRKRKCWKRRQDDPESRTSSRETIPMNASNLSLSKYIPRIAEDMTIQEAKKFARENNIKEGKIDEIMHDSIQDTAEQKVQLLLCWYQSHGKSDAYQDLIKGLKKAECRRTLDKFQDMVQKDLGKSTPDTGNENEGQCLE	did not protect against ELANE-mediated killing, but rather accelerated it		
